{"source": "patent US20260241049A1", "about": "“Radiopharmaceutical Compositions Targeting Glypican-3 and Uses Thereof” (RayzeBio, Inc., priority 2023, published 2026)", "binders": {"B1": {"name": "Macrocyclic peptide of Example 2-14 (SEQ ID No. 17) (peptide)", "peptide": "{CH2CO}-[NMeQ][NMeQ]D[NMeQ][F4aao(4)]II[Phe(4-COOH)][NMe2Nal]G[Phe(4-(1-Me-pyrazol-4-yl))][NMeC]-NH2", "modifications": "thioether N-12", "SMILES": "CC[C@H](C)[C@@H]1NC(=O)[C@H](Cc2ccc(OCC(=O)O)cc2)NC(=O)[C@H](CCC(N)=O)N(C)C(=O)[C@H](CC(=O)O)NC(=O)[C@H](CCC(N)=O)N(C)C(=O)[C@H](CCC(N)=O)N(C)C(=O)CSC[C@@H](C(N)=O)N(C)C(=O)[C@H](Cc2ccc(-c3cnn(C)c3)cc2)NC(=O)CNC(=O)[C@H](Cc2ccc3ccccc3c2)N(C)C(=O)[C@H](Cc2ccc(C(=O)O)cc2)NC(=O)[C@H]([C@@H](C)CC)NC1=O"}, "B2": {"name": "Macrocyclic peptide of Example 2-16 (SEQ ID No. 19) (peptide)", "peptide": "{CH2CO}-[NMeQ][NMeQ]D[NMeQ][Phe(4-COOH)]II[Phe(4-CH2COOH)][NMe2Nal]G[Phe(4-(1-Me-pyrazol-4-yl))][NMeC]-NH2", "modifications": "thioether N-12", "SMILES": "CC[C@H](C)[C@@H]1NC(=O)[C@H](Cc2ccc(C(=O)O)cc2)NC(=O)[C@H](CCC(N)=O)N(C)C(=O)[C@H](CC(=O)O)NC(=O)[C@H](CCC(N)=O)N(C)C(=O)[C@H](CCC(N)=O)N(C)C(=O)CSC[C@@H](C(N)=O)N(C)C(=O)[C@H](Cc2ccc(-c3cnn(C)c3)cc2)NC(=O)CNC(=O)[C@H](Cc2ccc3ccccc3c2)N(C)C(=O)[C@H](Cc2ccc(CC(=O)O)cc2)NC(=O)[C@H]([C@@H](C)CC)NC1=O"}, "B3": {"name": "Macrocyclic peptide of Example 2-17 (SEQ ID No. 20) (peptide)", "peptide": "{CH2CO}-[NMeQ][NMeQ]D[NMeQ][Phe(4-COOH)]II[F4aao][NMe2Nal]G[Phe(4-(1-Me-pyrazol-4-yl))][NMeC]-NH2", "modifications": "thioether N-12", "SMILES": "CC[C@H](C)[C@@H]1NC(=O)[C@H](Cc2ccc(C(=O)O)cc2)NC(=O)[C@H](CCC(N)=O)N(C)C(=O)[C@H](CC(=O)O)NC(=O)[C@H](CCC(N)=O)N(C)C(=O)[C@H](CCC(N)=O)N(C)C(=O)CSC[C@@H](C(N)=O)N(C)C(=O)[C@H](Cc2ccc(-c3cnn(C)c3)cc2)NC(=O)CNC(=O)[C@H](Cc2ccc3ccccc3c2)N(C)C(=O)[C@H](Cc2ccc(OCC(=O)O)cc2)NC(=O)[C@H]([C@@H](C)CC)NC1=O"}, "B4": {"name": "Lu-C-33 (peptide)", "peptide": "{CH2CO}-[NMeK]([dE-DOTA‑Lu(3)])[NMeI]D[NMeQ][Phe(4-COOH)]II[F4aao(3)][NMeAla(isoquinolin-7-yl)]G[3Pal(6-Ph)][NMeC]-NH2", "modifications": "thioether N-12"}, "B5": {"name": "Lu-C-35 (peptide)", "peptide": "KQDQFTIFFGXC", "modifications": "not fully specified; MeK(DOTA-Lu)-MeQ-D-MeQ-F4COO-TMe-I-F4aao-MeNal27N-G-3Py6Ph-MeC-NH2; thioether ring from N-terminal acetyl to MeC12"}, "B6": {"name": "Lu-C-42 (peptide)", "peptide": "{CH2CO}-K[NMeI]D[NMeQ][Phe(4-COOH)]II[F4aao][NMeAla(isoquinolin-7-yl)]G[3Pal(6-Ph)][NMeC]-NH2", "modifications": "thioether N-12; not fully specified (residue 1); also: DOTA-Lu: cold Lu-175 complex"}}, "note": "Starred links: 1 amine or outer side, 2 acyl side, 3 side chain; linkers in the order of their positions; H or OH if unused. Positions of bridges follow the written chain, without caps; N, C: chain ends. Non-standard residues stand in square brackets, D forms with d. Groups on a side chain read outwards from the residue. Primed or numbered codes have the meaning given here. F4aao(3) = 4-(carboxymethoxy)-L-phenylalanine ((S)-2-amino-3-(4-(carboxymethoxy)phenyl)propanoic acid), O=C([C@H](Cc1ccc(OCC(=O)[*:3])cc1)N[*:1])[*:2]; F4aao = 4-(carboxymethoxy)-L-phenylalanine, O=C([C@H](Cc1ccc(OCC(=O)[*:3])cc1)N[*:1])[*:2]; F4aao(4) = 4-(carboxymethoxy)phenylalanine, O=C([C@H](Cc1ccc(OCC(=O)[*:3])cc1)N[*:1])[*:2]; Phe(4-(1-Me-pyrazol-4-yl)) = Cn1cc(-c2ccc(C[C@H](N)C(=O)O)cc2)cn1; DOTA‑Lu(3) = DOTA chelate with cold lutetium-175, amide-linked; NMeAla(isoquinolin-7-yl) = CN[C@@H](Cc1ccc2ccncc2c1)C(=O)O; Phe(4-CH2COOH) = N[C@@H](Cc1ccc(CC(=O)O)cc1)C(=O)O; 3Pal(6-Ph) = N[C@@H](Cc1ccc(-c2ccccc2)nc1)C(=O)O; Phe(4-COOH) = N[C@@H](Cc1ccc(C(=O)O)cc1)C(=O)O; NMe2Nal = CN[C@@H](Cc1ccc2ccccc2c1)C(=O)O; NMeI = CC[C@H](C)[C@H](NC)C(=O)O; NMeQ = CN[C@@H](CCC(N)=O)C(=O)O; NMeK = CN[C@@H](CCCCN)C(=O)O; NMeC = CN[C@@H](CS)C(=O)O", "data": [{"biological_target": "T1, human Glypican3 (R&D systems, catalog number: 2119-GP) (human, UniProt P51654 25-559, limits assumed)", "T1 construct": "Bought recombinant protein, amine-coupled to the chip in Method B-1; also called GPC3; hGPC3", "assay": "SPR (Biacore T200), Method B-1: human Glypican3 amine-coupled to CM3 chip, peptide as analyte", "experimental": "A CM3 sensor chip (Cytiva) was inserted into a Biacore T200 (Cytiva), primed three times with a running buffer: HBS-P+, pH 7.4 (Cytiva), and equilibrated at a flow rate of 30 μL/min. Ligand immobilization was performed at a flow rate of 10 μL/min. 50 μL each of 60 mM EDC solution (Cytiva) and 650 mM NHS solution (Cytiva) were mixed, and then reacted at a flow rate of 10 μL/min for 420 seconds, 150 μL of 0.2 μM human Glypican3 (R&D systems, catalog number: 2119-GP) solution which was prepared by diluting with 10 mM acetic acid solution (pH 5.0), was reacted at a flow rate of 10 μL/min for 420 seconds, and Glypican3 was immobilized on the CM3 sensor chip. After immobilization, 1.0 M ethanolamine aqueous solution (Cytiva) was allowed to react for 420 seconds at a flow rate of 10 μL/min for capping. A peptide lysate prepared to 10 mM in DMSO solution was diluted with running buffer to a final concentration of 10 μM peptide lysate. […] Using the above samples, peptide kinetics for Glypican3 was obtained by SPR measurement. Kinetics evaluation of Glypican3 was performed by SPR measurements at a flow rate of 10 μL/min, setting the association time to 120 seconds and the disassociation time to 600 seconds.\n(§1) The obtained data by Method B-1, Method B-2, Method B-3 and Method B-4 were analyzed by follow. Single Cycle Kinetics was used as the kinetics evaluation model, and curve fitting was performed using Biacore T200 Evaluation Software Version 3.0 (Cytiva).", "units": {"Kd": "nM"}, "values": [{"binder": "B1", "Kd": 4.8}, {"binder": "B2", "Kd": 3.5}, {"binder": "B3", "Kd": 1.9}]}, {"biological_target": "T2, Human Glypican3-Fc (ACRO Biosystems, GP3-H5258) (human, UniProt P51654 25-559)", "T2 construct": "Bought fusion protein, captured in Methods B-2, B-3 and B-4; Catalogue number is printed only in Method B-2; not shown: Fc part of the bought fusion", "assay": "SPR (Biacore T200), Method B-2: human Glypican3-Fc captured by anti-human Fc on CM3 chip, peptide as analyte", "experimental": "A CM3 sensor chip (Cytiva) was inserted into a Biacore T200 (Cytiva), primed three times with a running buffer: HBS-P-+, pH 7.4 (Cytiva), and equilibrated at a flow rate of 30 μL/min. Using the Anti-Fc Capture Kit (Cytiva), 50 LL each of 60 mM EDC solution (Cytiva) and 650 mM NHS solution (Cytiva) were mixed, and then reacted at a flow rate of 10 μL/min for 420 seconds, 150 μL of […] Anti-human IgG (Fc) Antibody solution was prepared by diluting with 10 mM acetic acid solution (pH 5.0), reacted at a flow rate of 10 μL/min for 420 seconds, and immobilized on a CM3 sensor chip. After immobilization, 1.0 M ethanolamine aqueous solution (Cytiva) was allowed to react for 420 seconds at a flow rate of 10 μL/min for capping. Human Glypican3-Fc (ACRO Biosystems, GP3-H5258) was allowed to react for 60 seconds at a flow rate of 10 μL/min. After capturing human Glypican3-Fc, a peptide solution prepared to 10 mM in DMSO solution was diluted with a running buffer to a final concentration of 10 μM. […] Using the above samples, peptide kinetics for Glypican3 was obtained by SPR measurement. Kinetics evaluation of Glypican3 was performed by SPR measurements at a flow rate of 10 μL/min. setting the association time to 120 seconds and the disassociation time to 600 seconds.\nas §1", "units": {"Kd": "nM"}, "values": [{"binder": "B4", "Kd": 0.87}, {"binder": "B5", "Kd": 2.03}, {"binder": "B6", "Kd": 0.67}]}]}
